Source: patent publication US20160209426A1 (Genentech, published 2016)

Target: T1, integrin alphaEbeta7 (human, UniProt P38570 19-1179; P26010 20-798)
T1 construct: whole, on cells; In the occupancy experiments it stood on T lymphocytes from patients' colonic biopsies; also called αEβ7; αEβ7 receptor
Assay: flow cytometry on CD45+CD3+CD4- T lymphocytes from a pre-dose colonic biopsy
Protocol: Etrolizumab binds the β7 subunits of the heterodimeric integrins α4β7 and αEβ7. While α4β7 is expressed on leukocyte subsets in both blood and mucosal tissue, αEβ7 is primarily confined to intraepithelial lymphocytes and dendritic cells in mucosal tissue. Therefore, to evaluate the pharmacology and mechanism of action of etrolizumab at the site of action as well as in circulation, colonic tissue was assessed in addition to peripheral blood. Colonic tissue biopsies were collected using standard surgical procedures from 23 consented, study-enrolled patients at pre-dose (screen) and at certain post dose time points (day 43 and day 71). […]
Similar to the flow cytometry assay conducted on peripheral blood cells, occupancy of β7 integrin receptors on colonic tissue T lymphocyte subsets was assessed by staining with fluorescently labeled (PE label) FIB504, while expression of β7 integrin receptors was evaluated using fluorescently labeled 9D8 (PE label). […] Samples were then acquired on a BD FACS Cantoll™ or a BD FACSCalibur™ (BD Biosciences, San Jose, Calif. USA) and analyzed by gating on subsets of αEβ7-expressing and α4β7-expressing CD3+CD45+, αEβ7-expressing and α4β7-expressing CD3+CD4+CD45+, and αEβ7-expressing and α4β7-expressing CD3+CD4-CD45+ T cell subsets. […]

T1 sequence (P38570 19-1179, chain 1 of 2): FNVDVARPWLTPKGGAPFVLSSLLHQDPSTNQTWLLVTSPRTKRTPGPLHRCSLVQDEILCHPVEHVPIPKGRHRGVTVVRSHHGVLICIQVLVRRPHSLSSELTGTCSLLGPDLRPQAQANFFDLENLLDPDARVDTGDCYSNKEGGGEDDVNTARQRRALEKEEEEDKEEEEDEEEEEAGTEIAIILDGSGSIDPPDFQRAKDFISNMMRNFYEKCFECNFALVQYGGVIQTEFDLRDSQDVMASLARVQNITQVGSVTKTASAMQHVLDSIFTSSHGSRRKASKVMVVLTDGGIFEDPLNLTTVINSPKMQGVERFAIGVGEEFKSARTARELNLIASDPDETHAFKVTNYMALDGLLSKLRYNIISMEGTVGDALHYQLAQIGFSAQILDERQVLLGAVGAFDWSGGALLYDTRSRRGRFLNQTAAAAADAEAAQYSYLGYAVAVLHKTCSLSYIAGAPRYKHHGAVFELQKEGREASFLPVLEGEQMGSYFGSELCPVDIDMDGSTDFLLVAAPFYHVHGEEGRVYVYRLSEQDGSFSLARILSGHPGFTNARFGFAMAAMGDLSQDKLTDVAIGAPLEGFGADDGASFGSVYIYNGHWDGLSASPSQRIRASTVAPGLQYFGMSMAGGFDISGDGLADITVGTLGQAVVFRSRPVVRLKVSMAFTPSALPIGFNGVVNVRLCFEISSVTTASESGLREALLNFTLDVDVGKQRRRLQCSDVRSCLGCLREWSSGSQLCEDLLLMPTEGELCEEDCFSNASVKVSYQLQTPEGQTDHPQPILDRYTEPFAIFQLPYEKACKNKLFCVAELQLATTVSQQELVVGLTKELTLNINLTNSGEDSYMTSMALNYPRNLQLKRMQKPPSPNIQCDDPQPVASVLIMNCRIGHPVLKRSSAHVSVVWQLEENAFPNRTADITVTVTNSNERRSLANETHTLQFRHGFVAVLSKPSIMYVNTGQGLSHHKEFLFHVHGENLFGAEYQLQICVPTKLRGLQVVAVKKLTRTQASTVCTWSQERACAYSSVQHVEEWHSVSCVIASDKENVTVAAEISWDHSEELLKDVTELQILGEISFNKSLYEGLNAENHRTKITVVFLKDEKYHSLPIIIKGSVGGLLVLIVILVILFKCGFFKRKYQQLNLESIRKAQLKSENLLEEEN
T1 sequence (P26010 20-798, chain 2 of 2): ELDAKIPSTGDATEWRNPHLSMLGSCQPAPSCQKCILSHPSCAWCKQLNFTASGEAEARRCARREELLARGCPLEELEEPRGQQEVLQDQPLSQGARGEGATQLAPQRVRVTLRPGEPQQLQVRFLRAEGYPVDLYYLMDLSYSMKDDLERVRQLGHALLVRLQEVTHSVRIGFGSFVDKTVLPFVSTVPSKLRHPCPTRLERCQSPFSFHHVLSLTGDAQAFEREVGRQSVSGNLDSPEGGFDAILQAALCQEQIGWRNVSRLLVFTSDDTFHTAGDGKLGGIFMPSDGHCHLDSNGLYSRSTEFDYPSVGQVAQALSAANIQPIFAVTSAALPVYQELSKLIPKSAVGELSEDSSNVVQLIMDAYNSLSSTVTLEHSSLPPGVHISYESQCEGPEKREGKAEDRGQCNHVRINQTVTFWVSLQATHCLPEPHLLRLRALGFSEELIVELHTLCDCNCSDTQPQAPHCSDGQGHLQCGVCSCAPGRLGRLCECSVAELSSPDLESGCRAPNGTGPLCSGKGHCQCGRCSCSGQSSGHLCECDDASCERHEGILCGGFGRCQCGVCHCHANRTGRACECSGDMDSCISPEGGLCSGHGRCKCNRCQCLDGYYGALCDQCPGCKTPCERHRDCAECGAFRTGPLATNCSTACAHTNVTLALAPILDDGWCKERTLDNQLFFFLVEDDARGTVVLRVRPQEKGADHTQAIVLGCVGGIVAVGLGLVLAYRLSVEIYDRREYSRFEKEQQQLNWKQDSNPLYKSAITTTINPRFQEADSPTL

B1: FIB504 (rat anti-mouse/human beta7 monoclonal antibody), fluorescently labeled (antibody, V domains shown)
VH: EVQLQESGPGLVKPSQSLSLTCSVTGFFITNNYWGWIRKFPGNKMEWMGYISYSGSTSYNPSLKSRISITRDTSKNQFFLQLNSVTTEDTATYYCAMTGSSGYFDFWGPGTMVTVSS
VL: DVVMTQSPATLSVTPGERISLSCRASESVDTYLHWYQQKPNESPRLLIKYASQSISGIPSRFSGSGSGTDFTLSINGVELEDLSIYYCQQGNSLPNTFGAGTKLELKR
notes: Bought reagent (BD Biosciences), fluorescently labeled (PE label for colonic tissue)
binding result: binds
